Results: patent publication US20230133281A1 (CHROMOXYION, published 2023)

Target: T1, Antigen SdW1a (free peptide) (Homo sapiens)
T1 construct: Synthetic peptide derived from DBY/DEAD; A KLH-conjugated form (SdW1b) was also used in screening; also called the antigen; 22-mer peptide
T1 peptide: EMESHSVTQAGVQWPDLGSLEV
Experiment: supernatant ELISA on the antigen, hybridoma supernatant
Description: Screening: Hybridoma cells were grown for 10 days at which point the number of positive hybridoma colonies was determined and after a further 3 days' incubation an aliquot of antibody supernatant was taken for screening. The supernatant was assayed for reactivity to the antigens SdW1a (free peptide—SEQ ID NO. 347) and SdW1b (KLH-peptide), firstly by antigen microarray using an IgG-specific secondary antibody, followed by supernatant ELISA to confirm any positive antibody-producing clones.

B1: monoclonal antibody SdW1 RE5.B7.F9b (antibody, mouse IgG2a, V domains shown)
VH: EVKVEESGGGLVQPGGSMKISCVASGFTFKNYWMNWVRQSPEKGLEWVAEIRSKSNNNEKHYAESVKGRFTISRDDFKSSVYLQMNNLRTEDTGIYYCTGGTFDYWGQGTTLTVSS
VL: DVVVTQTPLSLPVSLGDQASISCRSSHSLVHSDGNTYLHWYLQKPGQSPKLLIYKVSNRFSGVPDRFSGSGSGTDFTLKISRVEAEDLGVYFCSQTTHVPPYTFGGGTQLEIK
notes: Tested as hybridoma culture supernatant; also called clone RE5; RE5 antibody
B1: binds.
